Consider one molecule from article PMC8113581 (Nature Communications, 2021).

In this experiment the target is T1, SARS-CoV-2 spike S1 domain (D614G) (SARS-CoV-2, Wuhan-Hu-1 background with …, UniProt A0A6H1PJZ3, strain).
T1 construct: also called D614G S1 variant; source: bought: Sino Biological
Put plainly: SPR. The conditions noted are these: both partners purified.

B1: P4A1 (antibody, V domains shown)
VH: EVQLVESGGGLIQPGGSLRLSCAASGFIVSSNYMSWVRQAPGKGLEWVSIIYSGGSTFYADSVKGRFTISRDNSKNTLYLQMNSLRVEDTAVYYCARDLQELGSLDYWGQGTLVTVSS
VL: DIQMTQSPSSVSASVGDRVTITCRASQGISSWLAWYQQKPGKAPKLLIYAASSLQSGVPSRFSGSGSGTDFTLTISSLQPEDFATYYCQEANSFPYTFGQGTKLEIK
notes: also called P4A1 (IgG1); IgG1 form P4A1
With B1, the binding result is on record as “binds”.
